Results on 125 sequences are retold here after the supplement of paper PMC9112550, “Optimization of the antimicrobial peptide Bac7 by deep mutational scanning” (BMC Biology, 2022).

For the series, the system named is Escherichia coli TOP10. As to the kind of experiment: shrunken log2 fold change of peptide-encoding DNA abundance (4.5 h post-induction vs induction); higher = less antimicrobial activity (less host growth inhibition). The following applies: time post-induction: 4.5 h; library: site-saturation at positions 5, 18, 19, 20.
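Further: peptides expressed intracellularly from a pBAD plasmid library in pooled LB shake-flask culture, induced with 0.3% L-arabinose, DNA abundance read by NGS, three biological replicates, DESeq2 with apeglm shrinkage.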

For RRIRMRPPRLPRPRPRPYQFPRP, the “shrunken log2 fold change” value is -0.125.

In the case of RRIRDRPPRLPRPRPRPTFNPRP, the “shrunken log2 fold change” value is -0.0925.

Regarding RRIRKRPPRLPRPRPRPGYYPRP, the “shrunken log2 fold change” value is -0.0439.

Consider RRIRVRPPRLPRPRPRPKVMPRP, for which the “shrunken log2 fold change” value was -0.12.

On to RRIRIRPPRLPRPRPRPTKGPRP, for which the “shrunken log2 fold change” value was 0.0205.

Consider RRIRDRPPRLPRPRPRPGYTPRP, for which the “shrunken log2 fold change” value is -0.127.

For the sequence RRIRFRPPRLPRPRPRPGGFPRP, the “shrunken log2 fold change” value turned out to be 0.42.

As for RRIRERPPRLPRPRPRPIHYPRP, the “shrunken log2 fold change” value is -0.0107.

For the sequence RRIRLRPPRLPRPRPRPQIVPRP, the “shrunken log2 fold change” value was -0.0529.

RRIRYRPPRLPRPRPRPEKSPRP: the “shrunken log2 fold change” value is -0.0559.

Consider RRIRTRPPRLPRPRPRPRRTPRP, for which the “shrunken log2 fold change” value amounted to 0.338.

In the case of RRIRLRPPRLPRPRPRPIIPPRP, the “shrunken log2 fold change” value was -0.195.

As for RRIRLRPPRLPRPRPRPTGKPRP, the “shrunken log2 fold change” value is -0.202.

For RRIRERPPRLPRPRPRPRHCPRP, the “shrunken log2 fold change” value was -0.133.

In the case of RRIRWRPPRLPRPRPRPHQKPRP, the “shrunken log2 fold change” value is 0.0146.

RRIRSRPPRLPRPRPRPRFQPRP: the “shrunken log2 fold change” value was 0.233.

Regarding RRIRCRPPRLPRPRPRPSEKPRP, the “shrunken log2 fold change” value is -0.188.

In the case of RRIRHRPPRLPRPRPRPTMDPRP, the “shrunken log2 fold change” value is -0.179.

Turning to RRIRERPPRLPRPRPRPEHKPRP, the “shrunken log2 fold change” value is -0.0265.

For the sequence RRIRLRPPRLPRPRPRPRMRPRP, the “shrunken log2 fold change” value is 0.667.

RRIRRRPPRLPRPRPRPWWWPRP: the “shrunken log2 fold change” value was 0.184.

For the sequence RRIRIRPPRLPRPRPRPRSYPRP, the “shrunken log2 fold change” value is -0.381.

Regarding RRIRFRPPRLPRPRPRPAGEPRP, the “shrunken log2 fold change” value was 0.191.

For RRIRQRPPRLPRPRPRPMYLPRP, the “shrunken log2 fold change” value is -0.415.

For the sequence RRIRKRPPRLPRPRPRPVATPRP, the “shrunken log2 fold change” value amounted to 0.635.

In the case of RRIRARPPRLPRPRPRPDQCPRP, the “shrunken log2 fold change” value was 0.0213.

For RRIRSRPPRLPRPRPRPDKEPRP, the “shrunken log2 fold change” value is 0.0247.

Turning to RRIRCRPPRLPRPRPRPYFNPRP, the “shrunken log2 fold change” value was -1.04.

RRIRKRPPRLPRPRPRPQCAPRP: the “shrunken log2 fold change” value turned out to be 0.28.

For the sequence RRIRSRPPRLPRPRPRPPRMPRP, the “shrunken log2 fold change” value is 0.274.

With RRIRSRPPRLPRPRPRPGYGPRP, the “shrunken log2 fold change” value is -0.0163.

Turning to RRIRLRPPRLPRPRPRPPYMPRP, the “shrunken log2 fold change” value was -0.205.

On to RRIRARPPRLPRPRPRPQWFPRP, for which the “shrunken log2 fold change” value is 0.0925.

For RRIRMRPPRLPRPRPRPHRTPRP, the “shrunken log2 fold change” value is -0.177.

Turning to RRIRHRPPRLPRPRPRPSESPRP, the “shrunken log2 fold change” value was -0.232.

On to RRIRTRPPRLPRPRPRPWSKPRP, for which the “shrunken log2 fold change” value was -0.0826.

Regarding RRIRHRPPRLPRPRPRPRSMPRP, the “shrunken log2 fold change” value was -0.241.

Take RRIRYRPPRLPRPRPRPGGMPRP: the “shrunken log2 fold change” value is -0.297.

RRIRLRPPRLPRPRPRPRVYPRP: the “shrunken log2 fold change” value amounted to 0.224.

With RRIRERPPRLPRPRPRPDNQPRP, the “shrunken log2 fold change” value was -0.459.

Take RRIRKRPPRLPRPRPRPSTPPRP: the “shrunken log2 fold change” value turned out to be 0.0478.

Regarding RRIRTRPPRLPRPRPRPFRDPRP, the “shrunken log2 fold change” value was -0.205.

With RRIRCRPPRLPRPRPRPDNDPRP, the “shrunken log2 fold change” value was -0.124.

As for RRIRVRPPRLPRPRPRPQGVPRP, the “shrunken log2 fold change” value was -0.275.

For the sequence RRIRRRPPRLPRPRPRPPAKPRP, the “shrunken log2 fold change” value is 1.35.

With RRIRRRPPRLPRPRPRPSQSPRP, the “shrunken log2 fold change” value was determined as 0.121.

On to RRIRFRPPRLPRPRPRPELCPRP, for which the “shrunken log2 fold change” value turned out to be 0.193.

Regarding RRIRTRPPRLPRPRPRPKAEPRP, the “shrunken log2 fold change” value is -0.000916.

As for RRIRIRPPRLPRPRPRPRGFPRP, the “shrunken log2 fold change” value is 0.199.

RRIRNRPPRLPRPRPRPMVQPRP: the “shrunken log2 fold change” value was -0.0629.

As to RRIRGRPPRLPRPRPRPMQRPRP, the “shrunken log2 fold change” value is 1.29.

Consider RRIRCRPPRLPRPRPRPFLNPRP, for which the “shrunken log2 fold change” value was -0.602.

On to RRIRKRPPRLPRPRPRPTPKPRP, for which the “shrunken log2 fold change” value worked out at 0.334.

As for RRIRARPPRLPRPRPRPYEWPRP, the “shrunken log2 fold change” value was -0.0646.

Regarding RRIRLRPPRLPRPRPRPNEWPRP, the “shrunken log2 fold change” value was -0.227.

For the sequence RRIRQRPPRLPRPRPRPAVLPRP, the “shrunken log2 fold change” value stood at 0.0386.

In the case of RRIRVRPPRLPRPRPRPGLEPRP, the “shrunken log2 fold change” value was determined as 0.0118.

For RRIRWRPPRLPRPRPRPREWPRP, the “shrunken log2 fold change” value was 1.22.

Turning to RRIRPRPPRLPRPRPRPMQGPRP, the “shrunken log2 fold change” value was -0.146.

RRIRHRPPRLPRPRPRPHESPRP: the “shrunken log2 fold change” value is -0.0218.

Turning to RRIRARPPRLPRPRPRPHHYPRP, the “shrunken log2 fold change” value is -0.223.

RRIRDRPPRLPRPRPRPHENPRP: the “shrunken log2 fold change” value worked out at 0.116.

Regarding RRIRIRPPRLPRPRPRPLGWPRP, the “shrunken log2 fold change” value is 0.339.

On to RRIRYRPPRLPRPRPRPCNMPRP, for which the “shrunken log2 fold change” value is -0.873.

For RRIRCRPPRLPRPRPRPQPYPRP, the “shrunken log2 fold change” value is -0.975.

For the sequence RRIRPRPPRLPRPRPRPVTVPRP, the “shrunken log2 fold change” value is -0.163.

On to RRIRMRPPRLPRPRPRPSSNPRP, for which the “shrunken log2 fold change” value was -0.142.

With RRIRWRPPRLPRPRPRPNNLPRP, the “shrunken log2 fold change” value was -0.513.

As for RRIRQRPPRLPRPRPRPMDMPRP, the “shrunken log2 fold change” value was -0.274.

Regarding RRIRWRPPRLPRPRPRPPHTPRP, the “shrunken log2 fold change” value was determined as 0.494.

Consider RRIRWRPPRLPRPRPRPMRDPRP, for which the “shrunken log2 fold change” value turned out to be 0.814.

Regarding RRIRHRPPRLPRPRPRPNTWPRP, the “shrunken log2 fold change” value is -0.0528.

On to RRIRMRPPRLPRPRPRPCTCPRP, for which the “shrunken log2 fold change” value was determined as 0.0043.

Take RRIRKRPPRLPRPRPRPHRQPRP: the “shrunken log2 fold change” value is 0.277.

Regarding RRIRLRPPRLPRPRPRPKPHPRP, the “shrunken log2 fold change” value was determined as 0.207.

For the sequence RRIRQRPPRLPRPRPRPIPWPRP, the “shrunken log2 fold change” value was 0.0351.

Take RRIRPRPPRLPRPRPRPWYNPRP: the “shrunken log2 fold change” value is -0.184.

Turning to RRIRNRPPRLPRPRPRPSDAPRP, the “shrunken log2 fold change” value was found to be 0.0594.

On to RRIRDRPPRLPRPRPRPDASPRP, for which the “shrunken log2 fold change” value is -0.012.

As to RRIRVRPPRLPRPRPRPLEDPRP, the “shrunken log2 fold change” value was 0.144.

In the case of RRIRYRPPRLPRPRPRPEWYPRP, the “shrunken log2 fold change” value is -0.00146.

For RRIRGRPPRLPRPRPRPPPQPRP, the “shrunken log2 fold change” value amounted to 1.55.

In the case of RRIRGRPPRLPRPRPRPHTCPRP, the “shrunken log2 fold change” value is 0.104.

Turning to RRIRTRPPRLPRPRPRPHKYPRP, the “shrunken log2 fold change” value was -0.295.

Consider RRIRHRPPRLPRPRPRPHINPRP, for which the “shrunken log2 fold change” value was -0.563.

Regarding RRIRGRPPRLPRPRPRPWFYPRP, the “shrunken log2 fold change” value is -0.4.

For RRIRHRPPRLPRPRPRPTMSPRP, the “shrunken log2 fold change” value was -0.11.

As to RRIRDRPPRLPRPRPRPGYDPRP, the “shrunken log2 fold change” value worked out at 0.0286.

On to RRIRVRPPRLPRPRPRPKFAPRP, for which the “shrunken log2 fold change” value came out at 0.0713.

As for RRIRWRPPRLPRPRPRPSVRPRP, the “shrunken log2 fold change” value was determined as 0.117.

As to RRIRWRPPRLPRPRPRPLQEPRP, the “shrunken log2 fold change” value worked out at 0.36.

As for RRIRVRPPRLPRPRPRPFHCPRP, the “shrunken log2 fold change” value is -0.13.

RRIRGRPPRLPRPRPRPEEDPRP: the “shrunken log2 fold change” value was -0.0499.

As to RRIRGRPPRLPRPRPRPGGIPRP, the “shrunken log2 fold change” value came out at 0.402.

As to RRIRCRPPRLPRPRPRPMQGPRP, the “shrunken log2 fold change” value was -0.0484.

For the sequence RRIRIRPPRLPRPRPRPWFRPRP, the “shrunken log2 fold change” value is -0.129.

Consider RRIRMRPPRLPRPRPRPPHKPRP, for which the “shrunken log2 fold change” value was 0.585.

As for RRIRTRPPRLPRPRPRPVWRPRP, the “shrunken log2 fold change” value was determined as 0.302.

In the case of RRIRDRPPRLPRPRPRPCQGPRP, the “shrunken log2 fold change” value amounted to 0.028.

RRIRWRPPRLPRPRPRPRVIPRP: the “shrunken log2 fold change” value is -0.233.

With RRIRRRPPRLPRPRPRPPVAPRP, the “shrunken log2 fold change” value is 0.769.

Consider RRIRTRPPRLPRPRPRPNLWPRP, for which the “shrunken log2 fold change” value was -0.0774.

Consider RRIRSRPPRLPRPRPRPNHEPRP, for which the “shrunken log2 fold change” value is -0.175.

In the case of RRIRDRPPRLPRPRPRPHVNPRP, the “shrunken log2 fold change” value came out at 0.000411.

With RRIRCRPPRLPRPRPRPWTVPRP, the “shrunken log2 fold change” value is -0.145.

For RRIRDRPPRLPRPRPRPLLLPRP, the “shrunken log2 fold change” value was determined as 0.468.

Consider RRIRMRPPRLPRPRPRPQMRPRP, for which the “shrunken log2 fold change” value turned out to be 1.

Consider RRIRYRPPRLPRPRPRPFRLPRP, for which the “shrunken log2 fold change” value was -0.0183.

For RRIRRRPPRLPRPRPRPNMNPRP, the “shrunken log2 fold change” value was -0.463.

For RRIRWRPPRLPRPRPRPYLCPRP, the “shrunken log2 fold change” value is -0.447.

As to RRIRGRPPRLPRPRPRPVPLPRP, the “shrunken log2 fold change” value was 0.13.

Consider RRIRRRPPRLPRPRPRPMLQPRP, for which the “shrunken log2 fold change” value is -0.274.

As to RRIRSRPPRLPRPRPRPSSYPRP, the “shrunken log2 fold change” value is -0.344.

Regarding RRIRMRPPRLPRPRPRPHDIPRP, the “shrunken log2 fold change” value was -0.104.

For RRIRCRPPRLPRPRPRPYLYPRP, the “shrunken log2 fold change” value was -1.01.

For the sequence RRIRERPPRLPRPRPRPMKNPRP, the “shrunken log2 fold change” value is -0.22.

Turning to RRIRWRPPRLPRPRPRPERKPRP, the “shrunken log2 fold change” value is -0.0287.

As to RRIRYRPPRLPRPRPRPLMYPRP, the “shrunken log2 fold change” value is -0.48.

On to RRIRQRPPRLPRPRPRPFHTPRP, for which the “shrunken log2 fold change” value was -0.0573.

Take RRIRFRPPRLPRPRPRPCRYPRP: the “shrunken log2 fold change” value is -0.0124.

For RRIRARPPRLPRPRPRPNNWPRP, the “shrunken log2 fold change” value was determined as 0.0825.

Consider RRIRRRPPRLPRPRPRPDFVPRP, for which the “shrunken log2 fold change” value is -0.0983.

In the case of RRIRVRPPRLPRPRPRPWCCPRP, the “shrunken log2 fold change” value was -0.203.

As to RRIRARPPRLPRPRPRPQWWPRP, the “shrunken log2 fold change” value is 0.464.

For the sequence RRIRVRPPRLPRPRPRPIFDPRP, the “shrunken log2 fold change” value was -0.0222.
